6 molecules from PMC3107159, “Resistance to organic hydroperoxides requires ohr and ohrR genes in Sinorhizobium meliloti” (BMC Microbiology, 2011) can be followed below.

Residue numbers refer to the chain shown, from its start.

Series [1] concerns the target T1, OhrR (Sinorhizobium meliloti Rm1021 (S. meliloti chromosomal DNA; Rm1021?)) (UniProt Q92MX6).
T1 sequence: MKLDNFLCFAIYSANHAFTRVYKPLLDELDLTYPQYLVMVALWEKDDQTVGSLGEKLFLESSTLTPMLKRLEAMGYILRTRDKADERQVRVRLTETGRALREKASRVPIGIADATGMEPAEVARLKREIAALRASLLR
Nature of the series: EMSA. As to conditions: 20 mM Tris-HCl pH 8.0, 50 mM KCl, 1 mM EDTA, 50 uM BSA, room temperature 10 min, 20 ul, 20 pmol DNA, 0-100 pmol OhrR, 6% PAGE in Tris-borate, SYBR gold. (In EMSA bound probe runs differently from free probe, usually more slowly.)

Series [2] concerns the target T2, OhrR (Sinorhizobium meliloti, UniProt Q92RD0).
T2 construct: gene SMc00098; full-length ORF in pET22b+, C-terminal 6His tag kept, E. coli BL21(DE3), heparin column; homodimer
T2 sequence (Q92RD0 1-158): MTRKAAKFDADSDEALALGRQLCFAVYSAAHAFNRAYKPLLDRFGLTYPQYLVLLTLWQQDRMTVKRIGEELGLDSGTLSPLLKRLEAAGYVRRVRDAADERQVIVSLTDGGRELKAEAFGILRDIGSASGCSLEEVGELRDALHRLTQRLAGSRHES
Put plainly: non-reducing SDS-PAGE of oxidised protein. Format: binding. As to conditions: covalent oxidation, reversible intersubunit disulfide dimer; 15 min incubation; 0.55 nM CuOOH as printed; reversed by DTT.

In series [3] the target is T3, OhrR (Sinorhizobium meliloti Rm1021 (S. …, UniProt Q92MX6 1-138)).
T3 sequence: T1 sequence
Nature of the series: EMSA; 1 mM DTT; 20 mM Tris-HCl pH 8.0, 50 mM KCl, 1 mM EDTA, 50 uM BSA, room temperature 10 min, 20 ul; 20 pmol DNA, 0-100 pmol OhrR; 6% PAGE in Tris-borate, SYBR gold; 1 mM DTT in Fig 3C. As to conditions: protein: recombinant; tags: C-terminal 6xHis (pET22b+); chain copies: 2; label: none (SYBR gold stain); blunt.

As to “CATGACAGTCTCCTTCCTTGTGGTTGCCGGATTTATATATCGCAAGATTAAATAGCGCGCAAATTAATTTTGCAAATTGCTTTGCCGGCGTGAATTTGCGACAATGACATCAT (double strand) [ohr-ohrR intergenic region 113 bp]”, in series [1], the binding result is listed as “binds”.

On to `CC(C)(OO)c1ccccc1` [CuOOH], for which the “non-reducing SDS-PAGE of oxidised protein” value on OhrR [2] is given as “Incubation of the protein with CuOOH or H2O2 led to the formation of a band”.

B1: M1 60 bp (dsDNA)
DNA 1: GGGGGGGAAGCTAGTCACCGCAAATTAATTTTGCGATACTAGAGAGATGCATATGGGGGG
DNA 2: CCCCCCATATGCATCTCTCTAGTATCGCAAAATTAATTTGCGGTGACTAGCTTCCCCCCC
As for B1, the binding result in the series with OhrR [3] is given as “binds”.

B2: Mut1 60 bp (GC to AA in motif 1) (dsDNA)
DNA 1: B1 DNA 1 with G20A, C21A
DNA 2: B1 DNA 2 with G40T, C41T
As for B2, the binding result with OhrR [3] is “no binding”.

B3: Mut2 60 bp (AAA to CCC in motif 1) (dsDNA)
DNA 1: B1 DNA 1 with A22C, A23C, A24C
DNA 2: B1 DNA 2 with T37G, T38G, T39G
On to B3, for which the binding result in the series with OhrR [3] is on record as “no binding”.

B4: M2 60 bp (dsDNA)
DNA 1: B1 DNA 1 with A27G, A28C, T32G, G33C
DNA 2: B1 DNA 2 with C28G, A29C, T33G, T34C
Consider B4, for which, in the series with OhrR [3], the binding result is given as “binds”.
